Where a chain is given by its changes, count along the chain named.
Experiments:
HLA-DR on BJAB cells [1] = molecular target: HLA-DR on BJAB cells (human); test: cell-based or functional assay
[2] = molecular target: T1, HLA-DR (DRA*0101/DRB1*0401) on PRIESS cells (human, UniProt P01903 26-254; P01911 30-266); test: cell-based or functional assay
T1 MHC II alpha: not shown
T1 MHC II beta: not shown

HLA-DR on BONNA-12 cells [3] = molecular target: HLA-DR on BONNA-12 cells (human); test: cell-based or functional assay
HLA-DR on MN-60 cells [4] = molecular target: HLA-DR on MN-60 cells (human); test: cell-based or functional assay
[5] = molecular target: HLA-DR on MHH-CALL-4 cells (human); test: cell-based or functional assay
[6] = molecular target: T1, HLA-DR (DRA*0101/DRB1*0401) on PRIESS …; test: cell-based or functional assay
[7] = molecular target: T2, human MHC class II DR protein (DRA*0101/DRB1*0401), purified from PRIESS cells (human, UniProt P01903 26-254; P01911 30-266, limits assumed); test: SPR (BIAcore), MHCII on CM5 chip
T2 construct: mature; also called HLA-DR protein; MHCII
T2 MHC II alpha: not shown
T2 MHC II beta: not shown

[8] = molecular target: T2, human MHC class II DR protein …; test: SPR (BIAcore), Fab, 8 preparations on 4 chips
[9] = molecular target: T3, chimeric 0401-IE class II molecule on cells of transgenic mice (human/murine chimera); test: cell-based or functional assay
[10] = molecular target: T2, human MHC class II DR protein …; test: ELISA, coated antigen, Fab 100 ng/well, read at 370 nm
Protocol: After washing in PBS the anti-human IgG F(ab')_2-peroxidase-conjugate at a 1:10,000 dilution in TBS (supplemented with 5% w/v non-fat drymilk/0.05% v/v Tween 20) was added to each well for 1 h. Final washes were carried out in PBS followed the addition the substrate POD (Roche).

[11] = molecular target: T2, human MHC class II DR protein …; test: BiaCore, Fab
[12] = molecular target: T2, human MHC class II DR protein …; test: BiaCore, IgG4
Protocol: The affinities for anti-HLA antibody fragments of the invention were measured as follows. All measurements were conducted in HBS buffer (20 mM HEPES, 150 mM NaCl, pH 7.4) at a flow rate of 20 µl/min at 25° C. on a BIAcore3000 instrument (Biacore AB, Sweden). MHC class II DR protein (prepared as example 1) was diluted in 100 mM sodium acetate pH 4.5 to a concentration of […], and coupled to a CM5 chip (Biacore AB) using standard EDC-NHS coupling chemistry with subsequent ethanolamine treatment as manufacturers directions. The coating density of MHCII was adjusted to between 500 and 4000 RU. Affinities were measured by injection of 5 different concentrations of the different antibodies and using the standard software of the Biacore instrument. Regeneration of the coupled surface was achieved using 10 mM glycine pH 2.3 and 7.5 mM NaOH.

[13] = molecular target: T3, chimeric 0401-IE class II molecule on …; test: cell-based or functional assay; remark: listed apart in the source
HLA-DR on LP-1 cells = HLA-DR on LP-1 cells (human); test: cell-based or functional assay
[14] = molecular target: HLA-DR on MHH-PREB-1 cells (human); test: cell-based or functional assay
HLA-DR on HC-1 cells = HLA-DR on HC-1 cells (human); test: cell-based or functional assay
HLA-DR on SR-786 cells = HLA-DR on SR-786 cells (human); test: cell-based or functional assay
HLA-DR on HDLM-2 cells = HLA-DR on HDLM-2 cells (human); test: cell-based or functional assay
HLA-DR on BJAB cells [15] = molecular target: HLA-DR on BJAB cells (human); test: cell-based or functional assay; remark: listed apart in the source
HLA-DR on NALM-1 cells = HLA-DR on NALM-1 cells (human); test: cell-based or functional assay
[16] = molecular target: T1, HLA-DR (DRA*0101/DRB1*0401) on PRIESS …; test: cell-based or functional assay
HLA-DR on BONNA-12 cells [17] = molecular target: HLA-DR on BONNA-12 cells (human); test: cell-based or functional assay; remark: listed apart in the source
HLA-DR on MN-60 cells [18] = molecular target: HLA-DR on MN-60 cells (human); test: cell-based or functional assay; remark: listed apart in the source
HLA-DR on EOL-1 cells = HLA-DR on EOL-1 cells (human); test: cell-based or functional assay
HLA-DR on HD-MY-Z cells = HLA-DR on HD-MY-Z cells (human); test: cell-based or functional assay
[19] = molecular target: HLA-DR on KARPAS-299 cells (human); test: cell-based or functional assay
HLA-DR on L-428 cells = HLA-DR on L-428 cells (human); test: cell-based or functional assay
[20] = molecular target: HLA-DR on MHH-CALL-4 cells (human); test: cell-based or functional assay; remark: listed apart in the source
[21] = molecular target: HLA-DR on KARPAS-422 cells (human); test: cell-based or functional assay
HLA-DR on DOHH-2 cells = HLA-DR on DOHH-2 cells (human); test: cell-based or functional assay
HLA-DR on RAJI cells = HLA-DR on RAJI cells (human); test: cell-based or functional assay
HLA-DR on KM-H2 cells = HLA-DR on KM-H2 cells (human); test: cell-based or functional assay
[22] = molecular target: HLA-DR on RPMI-8226 cells (human); test: cell-based or functional assay
HLA-DR on L-363 cells = HLA-DR on L-363 cells (human); test: cell-based or functional assay
[23] = molecular target: HLA-DR on GRANTA-519 cells (human); test: cell-based or functional assay
HLA-DR on L1236 cells = HLA-DR on L1236 cells (human); test: cell-based or functional assay
HLA-DR on ARH-77 cells = HLA-DR on ARH-77 cells (human); test: cell-based or functional assay
BSA = molecular target: T4, BSA (bovine, UniProt P02769 25-607); test: ELISA, purified coated protein, OD at 370 nm minus background
T4 construct: negative control antigen; also called bovine serum albumine

[24] = molecular target: T2, human MHC class II DR protein …; test: SPR (BIAcore), IgG4 over MHCII on CM5 chip

T4 sequence (P02769 25-607 limits assumed): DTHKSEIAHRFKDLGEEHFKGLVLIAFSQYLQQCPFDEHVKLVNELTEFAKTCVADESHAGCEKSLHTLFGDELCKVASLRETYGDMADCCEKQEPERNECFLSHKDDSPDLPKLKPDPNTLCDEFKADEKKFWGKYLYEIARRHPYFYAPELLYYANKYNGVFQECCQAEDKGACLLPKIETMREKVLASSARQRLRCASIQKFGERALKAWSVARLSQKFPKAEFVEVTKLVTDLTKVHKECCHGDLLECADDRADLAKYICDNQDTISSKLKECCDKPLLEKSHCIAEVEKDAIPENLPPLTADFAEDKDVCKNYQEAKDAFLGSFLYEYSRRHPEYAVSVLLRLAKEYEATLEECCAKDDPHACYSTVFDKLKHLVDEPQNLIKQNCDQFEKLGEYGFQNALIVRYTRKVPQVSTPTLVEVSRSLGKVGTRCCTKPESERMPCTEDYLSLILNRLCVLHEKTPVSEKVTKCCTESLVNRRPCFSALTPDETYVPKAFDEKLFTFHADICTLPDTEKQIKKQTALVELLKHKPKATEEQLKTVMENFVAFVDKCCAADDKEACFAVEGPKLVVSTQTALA

B1: MS-GPC-8 Fab (Fab, V domains shown)
VH: QVQLKESGPALVKPTQTLTLTCTFSGFSLSTSGVGVGWIRQPPGKALEWLALIDWDDDKYYSTSLKTRLTISKDTSKNQVVLTMTNMDPVDTATYYCARSPRYRGAFDYWGQGTLVTVSS
VL: DIVLTQPPSVSGAPGQRVTISCSGSSSNIGSNYVSWYQQLPGTAPKLLIYDNNQRPSGVPDRFSGSKSGTSASLAITGLQSEDEADYYCQSYDMPQAVFGGGTKLTVLG
notes: Fab from pMx9_Fab: VH-CH1 with FLAG tag and STREP tag II, VL-CL; VH residue 1 is Q in Fab; also called B8-Fab; B8
cell killing, cross-linked Fab, 4 h (HLA-DR on BJAB cells [1]): > 50%
maximum killing capacity, cross-linked bivalent fragment [2]: 84%
cell killing, cross-linked Fab, 4 h (HLA-DR on BONNA-12 cells [3]): > 50%
cell killing, cross-linked Fab, 4 h (HLA-DR on MN-60 cells [4]): > 50%
cell killing, cross-linked Fab, 4 h [5]: > 50%
maximum capacity to kill MHH-Call 4 cells [5]: 65%
EC50 of cell killing, cross-linked Fab, bivalent agent [6]: 31 nM
Kd [7]: 346 nM
koff [7]: 0.029 s⁻¹
kon [7]: 99000 M⁻¹ s⁻¹
Kd [8]: 346 nM
koff [8]: 0.029 s⁻¹
kon [8]: 99000 M⁻¹ s⁻¹
IC50 of inhibition of IL-2 secretion from T-Hyb 1 cells [9]: 110 nM (half the concentration of the Fab)
Maximum inhibition(%) of IL-2 secretion [9]: 100%
ELISA signal [10]: 1.06
Kd [11]: 346 nM
koff [11]: 0.029 s⁻¹
kon [11]: 99000 M⁻¹ s⁻¹

B2: MS-GPC-8-10-57 IgG4 (antibody, V domains shown)
VH: B1 VH
VL: B1 VL with S26E, S31N, S35Q, M94L, P95I, Q96R, A97H
notes: also called 1C7277; IgG form of MS-GPC-8-10-57
Kd [12]: 0.3 nM
koff [12]: 0.00031 s⁻¹
IC50 value for inhibition of T cell proliferation [13]: 11 nM
EC50 of cell killing, IgG4 [6]: 1.1 nM
% Killing by mAb, 50 nM, 4 h (HLA-DR on LP-1 cells): 70%
% Killing by mAb, 50 nM, 4 h [14]: 8%
% Killing by mAb, 50 nM, 4 h (HLA-DR on HC-1 cells): 86%
% Killing by mAb, 50 nM, 4 h (HLA-DR on SR-786 cells): 44%
% Killing by mAb, 50 nM, 4 h (HLA-DR on HDLM-2 cells): 84%
% Killing by mAb, 50 nM, 4 h (HLA-DR on BJAB cells [15]): 67%
% Killing by mAb, 50 nM, 4 h (HLA-DR on NALM-1 cells): 78%
% Killing by mAb, 50 nM, 4 h [16]: 93%
% Killing by mAb, 50 nM, 4 h (HLA-DR on BONNA-12 cells [17]): 91%
% Killing by mAb, 50 nM, 4 h (HLA-DR on MN-60 cells [18]): 66%
% Killing by mAb, 50 nM, 4 h (HLA-DR on EOL-1 cells): 49%
% Killing by mAb, 50 nM, 4 h (HLA-DR on HD-MY-Z cells): 57%
% Killing by mAb, 50 nM, 4 h [19]: 79%
% Killing by mAb, 50 nM, 4 h (HLA-DR on L-428 cells): 91%
% Killing by mAb, 50 nM, 4 h [20]: 46%
% Killing by mAb, 50 nM, 4 h [21]: 68%
% Killing by mAb, 50 nM, 4 h (HLA-DR on DOHH-2 cells): 60%
% Killing by mAb, 50 nM, 4 h (HLA-DR on RAJI cells): 86%
% Killing by mAb, 50 nM, 4 h (HLA-DR on KM-H2 cells): 88%
% Killing by mAb, 50 nM, 4 h [22]: 26%
% Killing by mAb, 50 nM, 4 h (HLA-DR on L-363 cells): 24%
% Killing by mAb, 50 nM, 4 h [23]: 78%
% Killing by mAb, 50 nM, 4 h (HLA-DR on L1236 cells): 66%
% Killing by mAb, 50 nM, 4 h (HLA-DR on ARH-77 cells): 88%
binding result (BSA): no binding
IC50 of inhibition of IL-2 secretion from T-Hyb 1 cells [9]: 0.31 nM
Maximum inhibition(%) of IL-2 secretion [9]: 100%
Kd [24]: 0.6 nM
koff [24]: 4e-05 s⁻¹
kon [24]: 70000 M⁻¹ s⁻¹

B3: MS-GPC-8-27-41 IgG4 (antibody, V domains shown)
VH: B1 VH
VL: B1 VL with S26E, S31N, S35Q, P95N, Q96V, A97H
notes: also called 1D09C3; IgG form of MS-GPC-8-27-41
Kd [12]: 0.6 nM
koff [12]: 0.00041 s⁻¹
IC50 value for inhibition of T cell proliferation [13]: 20 nM
EC50 of cell killing, IgG4 [6]: 1.1 nM
% Killing by mAb, 50 nM, 4 h (HLA-DR on LP-1 cells): 73%
% Killing by mAb, 50 nM, 4 h [14]: 4%
% Killing by mAb, 50 nM, 4 h (HLA-DR on HC-1 cells): 93%
% Killing by mAb, 50 nM, 4 h (HLA-DR on SR-786 cells): 53%
% Killing by mAb, 50 nM, 4 h (HLA-DR on HDLM-2 cells): 88%
% Killing by mAb, 50 nM, 4 h (HLA-DR on BJAB cells [15]): 71%
% Killing by mAb, 50 nM, 4 h (HLA-DR on NALM-1 cells): 82%
% Killing by mAb, 50 nM, 4 h [16]: 88%
% Killing by mAb, 50 nM, 4 h (HLA-DR on BONNA-12 cells [17]): 92%
% Killing by mAb, 50 nM, 4 h (HLA-DR on MN-60 cells [18]): 69%
% Killing by mAb, 50 nM, 4 h (HLA-DR on EOL-1 cells): 69%
% Killing by mAb, 50 nM, 4 h (HLA-DR on HD-MY-Z cells): 69%
% Killing by mAb, 50 nM, 4 h [19]: 82%
% Killing by mAb, 50 nM, 4 h (HLA-DR on L-428 cells): 91%
% Killing by mAb, 50 nM, 4 h [20]: 63%
% Killing by mAb, 50 nM, 4 h [21]: 66%
% Killing by mAb, 50 nM, 4 h (HLA-DR on DOHH-2 cells): 59%
% Killing by mAb, 50 nM, 4 h (HLA-DR on RAJI cells): 84%
% Killing by mAb, 50 nM, 4 h (HLA-DR on KM-H2 cells): 86%
% Killing by mAb, 50 nM, 4 h [22]: 29%
% Killing by mAb, 50 nM, 4 h (HLA-DR on L-363 cells): 26%
% Killing by mAb, 50 nM, 4 h [23]: 78%
% Killing by mAb, 50 nM, 4 h (HLA-DR on L1236 cells): 63%
% Killing by mAb, 50 nM, 4 h (HLA-DR on ARH-77 cells): 85%
binding result (BSA): no binding
IC50 of inhibition of IL-2 secretion from T-Hyb 1 cells [9]: 0.28 nM
Maximum inhibition(%) of IL-2 secretion [9]: 100%
Kd [24]: 0.31 nM
koff [24]: 3.1e-05 s⁻¹
kon [24]: 110000 M⁻¹ s⁻¹
